Reference: patent EP2970447B1 (Eli Lilly and Company, dated 2018)

Tests used:
Assay in all cases: SPR (Biacore 2000), antibody captured on Protein A, chemokine in solution, 25°C
[1] = molecular target: T1, human ENA-78 (CXCL5) (human, UniProt P42830 41-114)
T1 construct: also called human CXCL5 (ENA-78)
T1 sequence: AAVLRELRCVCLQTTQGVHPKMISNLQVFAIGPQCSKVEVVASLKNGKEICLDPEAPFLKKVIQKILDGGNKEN

[2] = molecular target: T2, human IL-8 (CXCL8) (human, UniProt P10145 28-99)
T2 construct: also called human CXCL8 (IL-8); wild type human CXCL8
T2 sequence: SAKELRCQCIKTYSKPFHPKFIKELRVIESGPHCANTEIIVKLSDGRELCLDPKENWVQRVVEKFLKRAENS

[3] = molecular target: T3, human NAP-2 (CXCL7) (human, UniProt P02775 59-128)
T3 construct: also called human CXCL7 (NAP-2)
T3 sequence: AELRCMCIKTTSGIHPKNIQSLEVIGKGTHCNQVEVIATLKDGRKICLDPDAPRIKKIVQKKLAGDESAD

[4] = molecular target: T4, human Gro-alpha (CXCL1) (human, UniProt P09341 35-107)
T4 construct: also called human CXCL1(Gro alpha)
T4 sequence: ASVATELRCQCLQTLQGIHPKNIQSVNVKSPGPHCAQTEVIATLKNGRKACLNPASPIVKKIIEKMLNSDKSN

[5] = molecular target: T5, human GCP-2 (CXCL6) (human, UniProt P80162 40-114)
T5 construct: also called human CXCL6 (GCP-2)
T5 sequence: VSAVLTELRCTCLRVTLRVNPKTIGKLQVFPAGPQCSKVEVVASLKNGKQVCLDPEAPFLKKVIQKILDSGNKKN

[6] = molecular target: T6, human Gro-gamma (CXCL3) (human, UniProt P19876 35-107)
T6 construct: also called human CXCL3 (Gro gamma)
T6 sequence: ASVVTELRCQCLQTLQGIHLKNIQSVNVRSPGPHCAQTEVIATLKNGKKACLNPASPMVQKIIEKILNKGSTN

koff [1]: 1.51e-05 s⁻¹
koff [2]: 1.24e-05 s⁻¹
koff [3]: 2.18e-05 s⁻¹
koff [4]: 1.53e-05 s⁻¹
koff [5]: 6.11e-05 s⁻¹
koff [6]: 1.76e-05 s⁻¹
B1: Antibody 2 (antibody, human IgG4 S228P, kappa, V domains shown)
VH: QVQLVQSGAEVKKPGASVKVSCKASGYEFTSYWIHWVRQAPGQGLEWMGNISPNSGSANYNEKFKSRVTMTRDTSTSTVYMELSSLRSEDTAVYYCAREGPYSYYPSRQYYGSDLWGQGTLVTVSS
VL: EIVLTQSPATLSLSPGERATLSCRASQSISNNLHWYQQKPGQAPRLLIYYTSRSVSGIPARFSGSGSGTDFTLTISSLEPEDFAVYYCGQNNEWPEVFGGGTKVEIKR
notes: Full-length antibody expressed in NS0 cells
